Assay results reported in patent US20100081612A1 (GENERAL HOSPITAL, published 2010).
Where no end group is shown, it is not given here.

T1: wild-type human PTHR (human, UniProt Q03431 27-593)
T1 construct: whole, on cells; also called PTHR-WT; intact PTHR
T1 sequence (looked up): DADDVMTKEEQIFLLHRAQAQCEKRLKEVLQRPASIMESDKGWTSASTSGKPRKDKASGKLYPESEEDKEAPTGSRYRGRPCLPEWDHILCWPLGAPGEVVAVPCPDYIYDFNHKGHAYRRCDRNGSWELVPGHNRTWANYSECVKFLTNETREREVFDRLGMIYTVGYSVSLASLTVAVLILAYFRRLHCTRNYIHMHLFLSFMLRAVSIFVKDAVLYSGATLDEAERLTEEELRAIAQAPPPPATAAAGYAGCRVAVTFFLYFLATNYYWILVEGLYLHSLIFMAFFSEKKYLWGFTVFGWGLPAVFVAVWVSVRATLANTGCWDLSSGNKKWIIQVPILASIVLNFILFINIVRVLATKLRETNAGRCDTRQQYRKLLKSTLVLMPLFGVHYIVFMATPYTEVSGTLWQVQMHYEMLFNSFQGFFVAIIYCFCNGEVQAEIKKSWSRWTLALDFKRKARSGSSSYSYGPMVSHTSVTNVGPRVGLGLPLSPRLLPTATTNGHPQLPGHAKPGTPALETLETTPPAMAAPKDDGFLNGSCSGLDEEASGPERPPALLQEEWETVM


molecular target: T1, wild-type human PTHR; test: competition binding, HKRK-B7 cells, 125I-PTH(1-34) tracer

Row | Binder | fold change in binding affinity vs PTH(1-31)NH2 [fold] | fold enhancement in binding affinity vs PTH(1-31)NH2 [fold] | fold reduction in binding affinity vs PTH(1-31)NH2 [fold]
1 | SVSEIQLMHNLGKHLNSMERVEWLRKKLQAV-NH2 [PTH(1-31)NH2 Asp^30→Ala] | ≤ 2 |  | 
2 | SVSEIQLMHNLGKHLNSMERVEWLRAKLQDV-NH2 [PTH(1-31)NH2 Lys^26→Ala] | ≤ 2 |  | 
3 | SVSEIQLMHNLGKHLNSMERVAWLRKKLQDV-NH2 [PTH(1-31)NH2 Glu^22→Ala] |  | ≤ 2 | 
4 | SVSEIQLMHNLGKHLNSMERVEWARKKLQDV-NH2 [PTH(1-31)NH2 Leu^24→Ala] |  |  | 12

molecular target: T1, wild-type human PTHR; test: as above; remark: another data set of the same source
Protocol: Receptor binding—Binding to the wild-type human PTHR in intact HKRK-B7 cells and ROS 17/2.8 cells was assessed using ¹²⁵I-PTH(1-34) as a tracer radioligand, as described (Shimizu, M., (2001) Endocrinology 142:3068-3074). In brief, the cells in 24-well plates (about 500,000 cells per well) were incubated in binding buffer containing radioligand (about 100,000 cpm per well) with or without unlabeled peptide ligand (3×10⁻⁹ to 1×10⁻⁵ M) for four hours at 15° C. The binding mixture was then removed by aspiration, the cells were rinsed three times with binding buffer, lysed in 1 M NaOH, and the entire lysate was counted for gamma-irradiation in a gamma counter. Binding to PTHR-delNt in COS-7 cell membranes was assessed in 96-well, vacuum filtration plates (Multiscreen-Durapore HV, […], Millipore Corp., Millford, Mass.) using ¹²⁵I-[Aib^{1,3},M]PTH(1-15)NH₂ as a tracer radioligand, as described (Dean, T., (2006) Mol Endocrinol 20:931-942). In brief, cell membranes (20 μg/well) were incubated in membrane binding buffer containing radioligand (30,000 cpm/well) with or without unlabeled peptide ligand (3×10⁻⁹ to 1×10⁻⁵ M) for 90 minutes at 21° C. The plates were then subject to rapid vacuum filtration, the filters were washed once with buffer, detached from the plate and counted for gamma-irradiation in a gamma counter. Non-specific binding was defined as the binding observed in the presence of 1×10⁻⁶ M PTH(1-31)NH₂ for HKRK-B7 and ROS 17/2.8 cells, and 1×10⁻⁶ M [Aib^{1,3},M]PTH(1-15)NH₂ for PTHR-delNt. Specifically bound radioactivity was calculated as a percentage of the radioactivity specifically bound in the absence of competing ligand.
Alanine-Scan of the PTH(17-31) domain—Each residue in the (17-31) region of PTH(1-31)NH₂ was individually replaced with alanine and the effects of the substitutions on binding to the intact human PTHR stably expressed in HKRK-B7 cells was assessed. Competition binding studies were performed using whole cells and ¹²⁵I-PTH(1-34) (¹²⁵I-[Nle^{8,21},Tyr³⁴]ratPTH(1-34)NH₂) as a tracer radioligand.

Row | Binder | IC50 [nM]
5 | SVSEIQLMHNLGKHLNSMEAVEWLRKKLQDV-NH2 [PTH(1-31)NH2 Arg^20→Ala] | > 10000
6 | SVSEIQLMHNLGKHLNSMERVEWLAKKLQDV-NH2 [PTH(1-31)NH2 Arg^25→Ala] | 281
7 | SVSEIQLMHNLGKHLNSMERAEWLRKKLQDV-NH2 [PTH(1-31)NH2 Val^21→Ala] | 200
8 | SVSEIQLMHNLGKHLNSMERVEWLRKKAQDV-NH2 [PTH(1-31)NH2 Leu^28→Ala] | 290
9 | SVSEIQLMHNLGKHLNSMERVEWLRKALQDV-NH2 [PTH(1-31)NH2 Lys^27→Ala] | 217
10 | SVSEIQLMHNLGKHLNSMERVEWARKKLQDV-NH2 [PTH(1-31)NH2 Leu^24→Ala] | 807

The next binders have a lower IC50 than those just listed; values first:

Row | IC50 [nM] | Binder
11 | 63 | SVSEIQLMHNLGKHLNSMERVEWLRKKLQAV-NH2 [PTH(1-31)NH2 Asp^30→Ala]
12 | 125 | SVSEIQLMHNLGKHLNSMERVEWLRAKLQDV-NH2 [PTH(1-31)NH2 Lys^26→Ala]
13 | 176 | SVSEIQLMHNLGKHLNSMERVEWLRKKLQDA-NH2 [PTH(1-31)NH2 Val^31→Ala]
14 | 36 | SVSEIQLMHNLGKHLNSMERVAWLRKKLQDV-NH2 [PTH(1-31)NH2 Glu^22→Ala]

molecular target: T1, wild-type human PTHR; test: cell-based or functional assay

Row | Binder | inositol phosphate (IP) production, peptide at 1×10^-6 M [fold]
15 | SVSEIQLMHNLGKHLNSMEAVEWLRKKLQDV-NH2 [PTH(1-31)NH2 Arg^20→Ala] | 4
16 | SVSEIQLMHNLGKHLNSMERVEWLAKKLQDV-NH2 [PTH(1-31)NH2 Arg^25→Ala] | 4
17 | SVSEIQLMHNLGKHLNSMERAEWLRKKLQDV-NH2 [PTH(1-31)NH2 Val^21→Ala] | 4
18 | SVSEIQLMHNLGKHLNSMERVEWLRKKAQDV-NH2 [PTH(1-31)NH2 Leu^28→Ala] | 4
19 | SVSEIQLMHNLGKHLNSMERVEWLRKALQDV-NH2 [PTH(1-31)NH2 Lys^27→Ala] | 4
20 | SVSEIQLMHNLGKHLNSMERVEWARKKLQDV-NH2 [PTH(1-31)NH2 Leu^24→Ala] | 4

Other lines, results leading:

Row | inositol phosphate (IP) production, peptide at 1×10^-6 M [fold] | Binder
21 | 4 | SVSEIQLMHNLGKHLNSMERVEWLRKKLQAV-NH2 [PTH(1-31)NH2 Asp^30→Ala]
22 | 4 | SVSEIQLMHNLGKHLNSMERVEWLRAKLQDV-NH2 [PTH(1-31)NH2 Lys^26→Ala]
23 | 4 | SVSEIQLMHNLGKHLNSMERVEWLRKKLQDA-NH2 [PTH(1-31)NH2 Val^31→Ala]
24 | 4 | SVSEIQLMHNLGKHLNSMERVAWLRKKLQDV-NH2 [PTH(1-31)NH2 Glu^22→Ala]

molecular target: PTHR-delNt (human) (UniProt Q03431); test: competition binding, COS-7 membranes, 125I-[Aib1,3,M]PTH(1-15) tracer

Row | Binder | IC50 [nM] | fold reduction in binding affinity vs PTH(1-31)NH2 [fold]
25 | SVSEIQLMHNLGKHLNSMEAVEWLRKKLQDV-NH2 [PTH(1-31)NH2 Arg^20→Ala] | 19300 | 5
26 | SVSEIQLMHNLGKHLNSMERVEWLAKKLQDV-NH2 [PTH(1-31)NH2 Arg^25→Ala] | 7180 | 
27 | SVSEIQLMHNLGKHLNSMERAEWLRKKLQDV-NH2 [PTH(1-31)NH2 Val^21→Ala] | 5690 | 
28 | SVSEIQLMHNLGKHLNSMERVEWLRKKAQDV-NH2 [PTH(1-31)NH2 Leu^28→Ala] | 3460 | 
29 | SVSEIQLMHNLGKHLNSMERVEWLRKALQDV-NH2 [PTH(1-31)NH2 Lys^27→Ala] | 7290 | 
30 | SVSEIQLMHNLGKHLNSMERVEWARKKLQDV-NH2 [PTH(1-31)NH2 Leu^24→Ala] | 8760 | 2

The next lines start with the values.

Row | IC50 [nM] | fold reduction in binding affinity vs PTH(1-31)NH2 [fold] | Binder
31 | 1540 |  | SVSEIQLMHNLGKHLNSMERVEWLRKKLQAV-NH2 [PTH(1-31)NH2 Asp^30→Ala]
32 | 6210 |  | SVSEIQLMHNLGKHLNSMERVEWLRAKLQDV-NH2 [PTH(1-31)NH2 Lys^26→Ala]
33 | 4910 |  | SVSEIQLMHNLGKHLNSMERVEWLRKKLQDA-NH2 [PTH(1-31)NH2 Val^31→Ala]
34 | 5860 |  | SVSEIQLMHNLGKHLNSMERVAWLRKKLQDV-NH2 [PTH(1-31)NH2 Glu^22→Ala]
